Results as given in patent US20240116985A1, “STAPLED PEPTIDES AND METHODS THEREOF” (priority 2020, published 2024).
Starred links: 1 amine or outer side, 2 acyl side, 3 side chain; linkers in the order of their positions; H or OH if unused. Positions of bridges follow the written chain, without caps; N, C: chain ends. Non-standard residues stand in square brackets, D forms with d. Primed or numbered codes have the meaning given here. *: point of attachment. B5(10) = 2-amino-2-(pent-4-en-1-yl)hept-6-enoic acid, bis(4-pentenyl)glycine, stitching residue bearing both staples, C=CCCCC(CCCC=C)(N[*:1])C(=O)[*:2]; PyrS2″ = (S)-3-amino-1-((pent-4-en-1-yloxy)carbonyl)pyrrolidine-3-carboxylic acid (stapling residue), C=CCCCOC(=O)N1CC[C@@](N[*:1])(C(=O)[*:2])C1; B5(5) = 2,2-bis(4-pentenyl)glycine, 2-amino-2-(pent-4-en-1-yl)hept-6-enoic acid (stitching residue), C=CCCCC(CCCC=C)(N[*:1])C(=O)[*:2]; PyrS2 = (S)-3-amino-1-((pent-4-en-1-yloxy)carbonyl)pyrrolidine-3-carboxylic acid, C=CCCCOC(=O)N1CC[C@@](N[*:1])(C(=O)[*:2])C1; B5(12) = 2-amino-2-(pent-4-en-1-yl)hept-6-enoic acid (two olefin side chains), C=CCCCC(CCCC=C)(N[*:1])C(=O)[*:2]; B5(19) = 2-amino-2-(pent-4-en-1-yl)hept-6-enoic acid (bis(4-pentenyl)glycine), C=CCCCC(CCCC=C)(N[*:1])C(=O)[*:2]; B5(3) = 2,2-bis(4-pentenyl)glycine (stitching residue), C=CCCCC(CCCC=C)(N[*:1])C(=O)[*:2]; Phe(3-COOH) = N[C@@H](Cc1cccc(C(=O)O)c1)C(=O)O; Phe(2-CF3) = N[C@@H](Cc1ccccc1C(F)(F)F)C(=O)O; Phe(2-Cl) = N[C@@H](Cc1ccccc1Cl)C(=O)O; Bta = N[C@@H](Cc1csc2ccccc12)C(=O)O; Lys(iPr) = CC(C)NCCCC[C@H](N)C(=O)O; αAllylPro = C=CC[C@@]1(C(=O)O)CCCN1; tBuAla = CC(C)(C)C[C@H](N)C(=O)O; 3Thi = N[C@@H](Cc1ccsc1)C(=O)O; S8 = C=CCCCCCC[C@](C)(N)C(=O)O; hSer = N[C@@H](CCO)C(=O)O; Nle = CCCC[C@H](N)C(=O)O; iPr = CC(C)*

B1: I-2383 (peptide)
peptide: Ac-[αAllylPro]D[tBuAla][B5(5)]D[Phe(3-COOH)]AAFL[PyrS2″][Phe(2-CF3)][Bta]QLT-NH2
modifications: staple 1-4, 4-11
B2: I-2392 (peptide)
peptide: Ac-[αAllylPro]D[tBuAla][B5(5)]D[Phe(3-COOH)]AAFL[PyrS2][Phe(2-CF3)][Bta]QLY-NH2
modifications: staple 1-4, 4-11
B3: I-2384 (peptide)
peptide: Ac-[αAllylPro]D[tBuAla][B5(5)]D[Phe(3-COOH)]AAFL[PyrS2″][Phe(2-CF3)][Bta]QLS-NH2
modifications: staple 1-4, 4-11
B4: I-2380 (peptide)
peptide: Ac-[αAllylPro]D[tBuAla][B5(5)]D[Phe(3-COOH)]AAFL[PyrS2″][Phe(2-CF3)][Bta]QLL-NH2
modifications: staple 1-4, 4-11
B5: I-2381 (peptide)
peptide: Ac-[αAllylPro]D[tBuAla][B5(5)]D[Phe(3-COOH)]AAFL[PyrS2″][Phe(2-CF3)][Bta]QLF-NH2
modifications: staple 1-4, 4-11
B6: I-1404 (peptide)
peptide: Ac-[αAllylPro]DL[B5(12)]DDAAF[Nle][PyrS2″]F[Bta]Q-NH2
modifications: staple 1-4, 4-11
B7: I-1401 (peptide)
peptide: Ac-[αAllylPro]D[Nle][B5(19)]DDAAF[Nle][PyrS2][3Thi][Bta]Q-NH2
modifications: staple 1-4, 4-11
B8: I-1406 (peptide)
peptide: Ac-[αAllylPro]DL[B5(12)]D[Phe(3-COOH)]AAFL[PyrS2″][3Thi][Bta]Q-NH2
modifications: staple 1-4, 4-11
B9: I-1410 (peptide)
peptide: Ac-[αAllylPro]DL[B5(12)]DDAAFL[PyrS2″][3Thi][Bta]L-NH2
modifications: staple 1-4, 4-11
B10: I-1409 (peptide)
peptide: Ac-[αAllylPro]D[tBuAla][B5(12)]DDAAFL[PyrS2″][3Thi][Bta]L-NH2
modifications: staple 1-4, 4-11
B11: I-1407 (peptide)
peptide: Ac-[αAllylPro]DL[B5(12)]D[Phe(3-COOH)]AAF[Nle][PyrS2″][3Thi][Bta]Q-NH2
modifications: staple 1-4, 4-11
B12: I-1411 (peptide)
peptide: Ac-[αAllylPro]D[Nle][B5(12)]DDAAFL[PyrS2″][3Thi][Bta]L-NH2
modifications: staple 1-4, 4-11; also: staple isomer, earlier eluting HPLC peak
B13: I-1405 (peptide)
peptide: Ac-[αAllylPro]D[Nle][B5(12)]DDAAF[Nle][PyrS2″]F[Bta]Q-NH2
modifications: staple 1-4, 4-11
B14: I-1412 (peptide)
peptide: Ac-[αAllylPro]D[Nle][B5(12)]DDAAFL[PyrS2″][3Thi][Bta]L-NH2
modifications: staple 1-4, 4-11
B15: I-1282 (peptide)
peptide: Ac-[αAllylPro]D[tBuAla][B5(5)]DEAAFK(iPr)[PyrS2][Phe(2-Cl)][Bta]T-NH2
modifications: staple 1-4, 4-11
B16: I-1281 (peptide)
peptide: Ac-[αAllylPro]D[tBuAla][B5(5)]DEAAFK(iPr)[PyrS2][Phe(2-Cl)][Bta]Q-NH2
modifications: staple 1-4, 4-11
B17: I-1283 (peptide)
peptide: Ac-[αAllylPro]D[tBuAla][B5(5)]DEAAFK(iPr)[PyrS2][Phe(2-Cl)][Bta]L-NH2
modifications: staple 1-4, 4-11
B18: I-1280 (peptide)
peptide: Ac-[αAllylPro]D[tBuAla][B5(5)]DDAAFK(iPr)[PyrS2][Phe(2-Cl)][Bta]L-NH2
modifications: staple 1-4, 4-11
B19: I-1397 (peptide)
peptide: Ac-[αAllylPro]D[tBuAla][B5(19)]DDAAF[hSer][S8][Phe(2-CF3)][Bta]Q-NH2
modifications: staple 1-4, 4-11
B20: I-1395 (peptide)
peptide: Ac-[αAllylPro]D[tBuAla][B5(19)]DDAAF[hSer][S8][Phe(2-Cl)][Bta]Q-NH2
modifications: staple 1-4, 4-11
B21: I-2040 (peptide)
peptide: Ac-[αAllylPro]D[tBuAla][B5(3)]D[Phe(3-COOH)]AAFL[PyrS2″][Phe(2-Cl)][Bta]NAAA-NH2
modifications: staple 1-4, 4-11
B22: I-2035 (peptide)
peptide: Ac-[αAllylPro]D[tBuAla][B5(3)]D[Phe(3-COOH)]AAFA[PyrS2″][Phe(2-Cl)][Bta]N-NH2
modifications: staple 1-4, 4-11; also: staple isomer, earlier eluting HPLC peak
B23: I-2041 (peptide)
peptide: Ac-[αAllylPro]D[tBuAla][B5(3)]D[Phe(3-COOH)]AAFL[PyrS2″][Phe(2-Cl)][Bta]NAA[dA]-NH2
modifications: staple 1-4, 4-11
B24: I-2045 (peptide)
peptide: Ac-[αAllylPro]D[tBuAla][B5(3)]D[Phe(3-COOH)]AAFS[PyrS2″][3Thi][Bta]N-NH2
modifications: staple 1-4, 4-11
B25: I-2043 (peptide)
peptide: Ac-[αAllylPro]D[tBuAla][B5(3)]D[Phe(3-COOH)]AAFL[PyrS2″][3Thi][Bta]N-NH2
modifications: staple 1-4, 4-11
B26: I-2033 (peptide)
peptide: Ac-[αAllylPro]D[tBuAla][B5(3)]D[Phe(3-COOH)]AAFN[PyrS2″][Phe(2-Cl)][Bta]F-NH2
modifications: staple 1-4, 4-11
B27: I-2042 (peptide)
peptide: Ac-[αAllylPro]D[tBuAla][B5(3)]D[Phe(3-COOH)]AAFA[PyrS2″][3Thi][Bta]N-NH2
modifications: staple 1-4, 4-11
B28: I-2044 (peptide)
peptide: Ac-[αAllylPro]D[tBuAla][B5(3)]D[Phe(3-COOH)]AAFF[PyrS2″][3Thi][Bta]N-NH2
modifications: staple 1-4, 4-11
B29: I-2036 (peptide)
peptide: Ac-[αAllylPro]D[tBuAla][B5(3)]D[Phe(3-COOH)]AAFA[PyrS2″][Phe(2-Cl)][Bta]N-NH2
modifications: staple 1-4, 4-11
B30: I-2050 (peptide)
peptide: Ac-[αAllylPro]D[tBuAla][B5(3)]D[Phe(3-COOH)]SAFL[PyrS2″][3Thi][Bta]A-NH2
modifications: staple 1-4, 4-11
B31: I-2037 (peptide)
peptide: Ac-[αAllylPro]D[tBuAla][B5(3)]D[Phe(3-COOH)]AAFF[PyrS2″][Phe(2-Cl)][Bta]N-NH2
modifications: staple 1-4, 4-11

Target: Bcat-Halo (UniProt P35222)
Experiment: NanoBRET Abs IC50, HEK293 cells; Bcat-Halo / TCF4-Luc engagement

Chain of Bcat-Halo (P35222 whole entry): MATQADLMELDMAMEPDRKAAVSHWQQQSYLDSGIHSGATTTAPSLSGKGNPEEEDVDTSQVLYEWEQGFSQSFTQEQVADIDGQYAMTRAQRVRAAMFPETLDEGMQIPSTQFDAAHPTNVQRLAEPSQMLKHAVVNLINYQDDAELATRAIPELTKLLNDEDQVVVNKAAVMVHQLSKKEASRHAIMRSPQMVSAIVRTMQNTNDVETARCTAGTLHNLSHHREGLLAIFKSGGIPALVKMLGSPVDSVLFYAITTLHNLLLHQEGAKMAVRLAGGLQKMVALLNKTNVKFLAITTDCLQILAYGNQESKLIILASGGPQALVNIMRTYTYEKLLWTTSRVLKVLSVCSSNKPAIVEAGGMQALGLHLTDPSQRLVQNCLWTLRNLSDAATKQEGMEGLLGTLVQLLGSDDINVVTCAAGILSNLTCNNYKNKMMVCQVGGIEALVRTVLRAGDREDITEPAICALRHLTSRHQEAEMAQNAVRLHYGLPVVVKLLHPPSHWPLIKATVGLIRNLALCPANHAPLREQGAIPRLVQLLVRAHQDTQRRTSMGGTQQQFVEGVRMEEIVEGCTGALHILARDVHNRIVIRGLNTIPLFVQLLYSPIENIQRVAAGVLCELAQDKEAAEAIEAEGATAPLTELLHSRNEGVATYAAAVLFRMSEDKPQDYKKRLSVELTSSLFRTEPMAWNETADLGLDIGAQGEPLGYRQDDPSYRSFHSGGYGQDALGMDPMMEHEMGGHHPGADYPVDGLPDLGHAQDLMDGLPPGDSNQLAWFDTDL

Row | IC50 [nM] | Binder
1 | 4200 | B1
2 | 8600 | B2
3 | 4600 | B3
4 | 2700 | B4
5 | 2100 | B5

Target: beta-catenin (Homo sapiens (Human)) (UniProt P35222)
Experiment: fluorescence polarization competition; full-length beta-catenin with 5FAM-TCF4(10-53) probe as competitor

Chain of beta-catenin (Homo sapiens (Human)) (P35222 whole entry): as above

Row | EC50 [nM] | Binder
6 | 113 | B6
7 | 5 | B7
8 | 6 | B8
9 | 80 | B9
10 | 74 | B10
11 | 5 | B11
12 | 109 | B12
13 | 9 | B13
14 | 79 | B14

Target: full-length beta-Catenin (Uniprot ID P35222) (Homo sapiens (Human)) (UniProt P35222)
Experiment: fluorescence polarization competition; full-length beta-catenin, competitor 5FAM-TCF4(10-53)
Target sequence in this assay (P35222 2-781 limits assumed): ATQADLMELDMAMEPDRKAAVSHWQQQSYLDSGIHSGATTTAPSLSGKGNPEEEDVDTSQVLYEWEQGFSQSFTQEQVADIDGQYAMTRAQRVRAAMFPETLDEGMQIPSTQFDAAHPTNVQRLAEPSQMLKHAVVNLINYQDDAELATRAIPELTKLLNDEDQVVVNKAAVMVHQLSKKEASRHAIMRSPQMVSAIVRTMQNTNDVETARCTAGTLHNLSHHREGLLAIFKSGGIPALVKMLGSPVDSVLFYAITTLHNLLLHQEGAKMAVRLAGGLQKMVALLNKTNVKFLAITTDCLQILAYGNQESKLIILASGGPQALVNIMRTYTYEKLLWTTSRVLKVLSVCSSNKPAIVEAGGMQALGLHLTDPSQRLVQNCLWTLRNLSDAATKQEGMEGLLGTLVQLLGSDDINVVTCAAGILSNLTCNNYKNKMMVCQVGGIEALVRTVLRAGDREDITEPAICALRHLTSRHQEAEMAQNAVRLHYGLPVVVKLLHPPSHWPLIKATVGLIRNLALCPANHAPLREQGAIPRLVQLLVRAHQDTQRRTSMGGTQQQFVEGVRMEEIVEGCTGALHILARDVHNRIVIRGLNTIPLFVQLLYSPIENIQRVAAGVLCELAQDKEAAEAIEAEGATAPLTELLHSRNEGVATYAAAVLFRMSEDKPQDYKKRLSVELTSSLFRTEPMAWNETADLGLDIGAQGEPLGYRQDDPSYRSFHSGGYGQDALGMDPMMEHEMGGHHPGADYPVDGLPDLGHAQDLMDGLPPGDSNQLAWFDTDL

Row | IC50 [nM] | Binder
15 | 77 | B1
16 | 462 | B2
17 | 5 | B3
18 | 330 | B4
19 | 1470 | B5

Target: full-length beta-Catenin (Uniprot ID P35222) (Homo sapiens (Human)) (UniProt P35222)
Experiment: cell-based or functional assay
Target sequence in this assay (P35222 2-781 limits assumed): as above

Row | DLD1 4% Abs IC50 [nM] | Binder
20 | 800 | B1
21 | 1100 | B3
22 | 1500 | B4
23 | 1100 | B5

Target: Bcat-Halo (UniProt P35222)
Experiment: NanoBRET Abs IC50, HEK293 cells, Bcat-Halo/TCF4-Luc; competitor TCF4-Luc

Row | IC50 [nM] | Binder
24 | 43100 | B15
25 | 22200 | B16
26 | 38600 | B17
27 | 24700 | B18

Target: Bcat-Halo (beta-catenin HaloTag construct expressed in HEK293 cells) (UniProt P35222)
Experiment: NanoBRET Abs IC50 in HEK293 cells; B-cat-Halo with competitor TCF4-Luc

Chain of Bcat-Halo (beta-catenin HaloTag construct expressed in HEK293 cells) (P35222 whole entry): as the sequence (P35222 whole entry) above

Row | IC50 [nM] | Binder
28 | 36800 | B6
29 | 21400 | B7
30 | 16400 | B19
31 | 5000 | B8
32 | 15400 | B20
33 | 29300 | B9
34 | 24000 | B10
35 | 4200 | B11
36 | 47100 | B12
37 | 40100 | B13
38 | > 20000 | B14

Target: full-length beta-Catenin (Uniprot ID P35222) (Homo sapiens (Human)) (UniProt P35222)
Experiment: fluorescence polarization competition; full-length beta-catenin + 5FAM-TCF4(10-53) probe
Target sequence in this assay (P35222 whole entry, one chain of several): as the sequence (P35222 whole entry) above

Row | EC50 [nM] | Binder
39 | 34 | B15
40 | 10 | B16
41 | 26 | B17
42 | 22 | B18

Target: full-length beta-Catenin (Uniprot ID P35222) (Homo sapiens (Human)) (UniProt P35222)
Experiment: fluorescence polarization competition; full-length beta-catenin, competitor 5FAM-TCF4 10-53 probe
Target sequence in this assay (P35222 2-781 limits assumed): as the sequence (P35222 2-781 limits assumed) above

Row | IC50 [nM] | Binder
43 | 113 | B6
44 | 5 | B7
45 | 48 | B19
46 | 6 | B8
47 | 33 | B20
48 | 80 | B9
49 | 74 | B10
50 | 5 | B11
51 | 109 | B12
52 | 9 | B13
53 | 79 | B14

Target: full-length beta-Catenin (Uniprot ID P35222) (Homo sapiens (Human)) (UniProt P35222)
Experiment: fluorescence polarization competition against 5FAM-TCF4(10-53) on full-length beta-catenin
Target sequence in this assay (P35222 whole entry, one chain of several): as the sequence (P35222 whole entry) above

Row | IC50 [nM] | Binder
54 | 34 | B15
55 | 10 | B16
56 | 26 | B17
57 | 22 | B18

Target: full-length beta-Catenin (Uniprot ID P35222) (Homo sapiens (Human)) (UniProt P35222)
Experiment: FP competition; full-length beta-catenin, competitor 5FAM-TCF4(10-53)
Target sequence in this assay (P35222 whole entry, one chain of several): as the sequence (P35222 whole entry) above

Row | EC50 [nM] | Binder
58 | 48 | B19
59 | 33 | B20

Target: full-length beta-Catenin (Uniprot ID P35222) (Homo sapiens (Human)) (UniProt P35222)
Experiment: fluorescence polarization competition against 5FAM-TCF4 (10-53) on full-length beta-catenin
Target sequence in this assay (P35222 2-781 limits assumed): as the sequence (P35222 2-781 limits assumed) above

Row | IC50 [nM] | Binder
60 | 24 | B21
61 | 16 | B22
62 | 16 | B23
63 | 5 | B24
64 | 8 | B25
65 | 30 | B26
66 | 9 | B27
67 | 9 | B28
68 | 19 | B29
69 | 9 | B30
70 | 17 | B31
